Test results: the supplement of paper PMC10724198
± gives the standard deviation of the averaged measurements.
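Further: PSI is a weighted mean of sequencing reads over stability bins, variants kept only with over 10 reads, mCherry proximal and sfGFP distal, peptide attached via GGGS linker.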

These sequences were tested on Saccharomyces cerevisiae (assay: protein stability index of tFT-peptide fusion (C-terminal peptide) (PSI (0-1 scale)); higher = more stable (slower turnover)). Settings: genetic background: das1 deletion; temperature: 37 C.
Protocol: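 MPS profiling in S. cerevisiae of the tFT-X12 degron library: putative degron peptides plus stable controls, 12 aa, fused to the C-terminus of a sfGFP-mCherry timer. Cells are FACS-sorted into 8 mCherry/sfGFP bins and deep-sequenced. PSI runs from 0 (unstable) to 1 (stable). Backgrounds are wild type, das1Δ and doa10Δ at 30 °C, and wild type, das1Δ, cdc34-1 and cdc53-1 at 37 °C; 2-3 technical replicates each.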
EVPVIGVLRSLL showed a protein stability index of 0.8784 ± 0.0044. EVSIISECKVAS was tested, and the protein stability index was 0.585 ± 0.026. FALAYFFVLKSF gave a protein stability index of 0.423 ± 0.0084. For FARYLRSMYILF, the protein stability index was 0.6721 ± 0.0049. FAVLWFLYWCSW was tested, and the protein stability index was 0.422 ± 0.013. FCCSFFLCVCFV showed a protein stability index of 0.409 ± 0.007. Work on FCLSPILLLRFL yielded a protein stability index of 0.439 ± 0.0047. FCRPCCLIVFVV showed a protein stability index of 0.467 ± 0.0059. FFCRARHRLYVA was tested, and the protein stability index was 0.675 ± 0.0094. Sequence FFFFLFRSIFLS has a protein stability index of 0.394 ± 0.094. FFFFSMLIFCAV was tested, and the protein stability index was 0.226 ± 0.013. In the case of FFFLLPRLFRCV, the protein stability index is reported as 0.773 ± 0.011. FFLFCWFVPRFS gave a protein stability index of 0.553 ± 0.012. FFLLCFMMCVLL gave a protein stability index of 0.374 ± 0.025. FFLPIFFSIFLS gave a protein stability index of 0.198 ± 0.0023. Work on FFLSAFFFFFLF yielded a protein stability index of 0.4409 ± 0.0039. With FFMLLYSFFTFD the protein stability index was 0.51926 ± 0.00029. For FFSSSASVLFII, the protein stability index was 0.79 ± 0.0075. FFTLLLFLFFSV gave a protein stability index of 0.435 ± 0.039. In the case of FFVACCSFVFLL, the protein stability index is reported as 0.478 ± 0.0052. In the case of FGFGSSRFLLCL, the protein stability index is reported as 0.743 ± 0.0099. FGFLVVLFDCVR gave a protein stability index of 0.474 ± 0.017. In the case of FGVFLLWCVLLL, the protein stability index is reported as 0.339 ± 0.013. For FIAVSLSVFLVF, the protein stability index was 0.322 ± 0.012. FIFLFVALFCVF showed a protein stability index of 0.404 ± 0.014. In the case of FILIFLGILSCC, the protein stability index is reported as 0.463 ± 0.014. Sequence FIYSVFFYSYWF has a protein stability index of 0.467 ± 0.0063. With FLFLESFLFFYL the protein stability index was 0.5698 ± 0.0026. For FLFVFLGVYGHV, the protein stability index was 0.494 ± 0.027. In the case of FLGPYTPGMYLA, the protein stability index is reported as 0.7435 ± 0.0044. FLISVRFVLILN was tested, and the protein stability index was 0.278 ± 0.01. FLLFLPLLFFFL showed a protein stability index of 0.456 ± 0.013. FLLHLVAHFSFL showed a protein stability index of 0.531 ± 0.0066. FLLIVSSVSFYL showed a protein stability index of 0.3885 ± 0.0014. FLLLSCLVRRSF showed a protein stability index of 0.611 ± 0.01. In the case of FLRFVFSFTFFV, the protein stability index is reported as 0.411 ± 0.0061. FLVGVARCPFLV was tested, and the protein stability index was 0.725 ± 0.053. FLVLLFCLFFCF showed a protein stability index of 0.552 ± 0.015. For FMCGWRMLVSVS, the protein stability index was 0.0676 ± 0.027. With FPGLPVFFPPPL the protein stability index was 0.769 ± 0.012. For FPRLERVAVMAR, the protein stability index was 0.244 ± 0.0086. Sequence FQILLRFFRSVA has a protein stability index of 0.612 ± 0.0079. Sequence FRAKRTVFQRNS has a protein stability index of 0.718 ± 0.01. FRFFRPSFRFFC gave a protein stability index of 0.7518 ± 0.0026. Sequence FRFPCSILMTLL has a protein stability index of 0.622 ± 0.026. Sequence FRQEVLHWRQHS has a protein stability index of 0.727 ± 0.028. FRWLAFALLFGC showed a protein stability index of 0.495 ± 0.025. Work on FSARPFLYSFRP yielded a protein stability index of 0.7416 ± 0.0052. FSCEFKMSCLKS showed a protein stability index of 0.679 ± 0.016. Sequence FSIFFIIEFVGT has a protein stability index of 0.374 ± 0.013. For FSSYLSALLIVV, the protein stability index was 0.242 ± 0.0039. In the case of FSYVGFFFLLGF, the protein stability index is reported as 0.494 ± 0.0069. With FTYCIVFFFSRL the protein stability index was 0.571 ± 0.045. In the case of FTYFFFVRVLLV, the protein stability index is reported as 0.2772 ± 0.00032. Work on FVCSSVFVVLLF yielded a protein stability index of 0.4769 ± 0.001. For FVFLCLLCISSF, the protein stability index was 0.355 ± 0.006. FVGCFVFYLFLL gave a protein stability index of 0.5184 ± 0.0036. FVRVFMASIIWC gave a protein stability index of 0.508 ± 0.024. Sequence FVVFAFGVLPVK has a protein stability index of 0.552 ± 0.012. For FVVRVVCRLGFF, the protein stability index was 0.374 ± 0.02. Work on FWFSFLLSGVCC yielded a protein stability index of 0.29 ± 0.0029. Sequence FWFVSVFIVFFC has a protein stability index of 0.337 ± 0.022. FYLPGLFFVRFR showed a protein stability index of 0.33 ± 0.019. FYVIFRRACLSV gave a protein stability index of 0.3605 ± 0.0029. With GACGLGMLIFIV the protein stability index was 0.623 ± 0.015. GAPIFSSFLLFC was tested, and the protein stability index was 0.667 ± 0.012. For GARCFGFFCFLV, the protein stability index was 0.582 ± 0.011. With GCIFGNVVFVRV the protein stability index was 0.6335 ± 0.0023. Sequence GCIMHLTIYVRD has a protein stability index of 0.439 ± 0.032. For GCPRSWSFNIYV, the protein stability index was 0.742 ± 0.018. For GCRSLRLWLTFS, the protein stability index was 0.726 ± 0.013. GCVVVLIPVVSA gave a protein stability index of 0.415 ± 0.0087. With GEAYVYLFVYSC the protein stability index was 0.541 ± 0.019. GEWCLPLRLVVY gave a protein stability index of 0.201 ± 0.011. In the case of GFCVRIFHGFLH, the protein stability index is reported as 0.7197 ± 0.0045. GFDVFWLWVVVA gave a protein stability index of 0.307 ± 0.022. With GFRMACYIRVLS the protein stability index was 0.445 ± 0.0051. Sequence GFSFVCFSPFLF has a protein stability index of 0.745 ± 0.011.

Same assay, conditions: genetic background: doa10 deletion; temperature: 30 C
In the case of EVPVIGVLRSLL, the protein stability index is reported as 0.773 ± 0.027. In the case of EVSIISECKVAS, the protein stability index is reported as 0.145 ± 0.013. Sequence FALAYFFVLKSF has a protein stability index of 0.0908 ± 0.011. FARYLRSMYILF showed a protein stability index of 0.369 ± 0.014. FAVLWFLYWCSW showed a protein stability index of 0.245 ± 0.025. Sequence FCCSFFLCVCFV has a protein stability index of 0.29 ± 0.017. For FCLSPILLLRFL, the protein stability index was 0.219 ± 0.022. With FCRPCCLIVFVV the protein stability index was 0.122 ± 0.0099. Work on FFCRARHRLYVA yielded a protein stability index of 0.0986 ± 0.0092. FFFFLFRSIFLS showed a protein stability index of 0.179 ± 0.0022. Sequence FFFFSMLIFCAV has a protein stability index of 0.129 ± 0.01. Sequence FFFLLPRLFRCV has a protein stability index of 0.445 ± 0.018. For FFLFCWFVPRFS, the protein stability index was 0.349 ± 0.014. For FFLLCFMMCVLL, the protein stability index was 0.288 ± 0.01. Work on FFLPIFFSIFLS yielded a protein stability index of 0.281 ± 0.0056. With FFLSAFFFFFLF the protein stability index was 0.3669 ± 0.002. In the case of FFMLLYSFFTFD, the protein stability index is reported as 0.348 ± 0.004. With FFSSSASVLFII the protein stability index was 0.19 ± 0.015. In the case of FFTLLLFLFFSV, the protein stability index is reported as 0.395 ± 0.0048. FFVACCSFVFLL gave a protein stability index of 0.197 ± 0.007. With FGFGSSRFLLCL the protein stability index was 0.3357 ± 0.0026. FGFLVVLFDCVR showed a protein stability index of 0.2652 ± 0.00067. Sequence FGVFLLWCVLLL has a protein stability index of 0.217 ± 0.01. FIAVSLSVFLVF showed a protein stability index of 0.1758 ± 0.00094. For FIFLFVALFCVF, the protein stability index was 0.328 ± 0.012. In the case of FILIFLGILSCC, the protein stability index is reported as 0.312 ± 0.0014. In the case of FIYSVFFYSYWF, the protein stability index is reported as 0.318 ± 0.025. FLFLESFLFFYL gave a protein stability index of 0.502 ± 0.0079. With FLFVFLGVYGHV the protein stability index was 0.27 ± 0.0047. For FLGPYTPGMYLA, the protein stability index was 0.208 ± 0.011. Work on FLISVRFVLILN yielded a protein stability index of 0.143 ± 0.0081. For FLLFLPLLFFFL, the protein stability index was 0.4578 ± 0.0037. In the case of FLLHLVAHFSFL, the protein stability index is reported as 0.473 ± 0.027. For FLLIVSSVSFYL, the protein stability index was 0.177 ± 0.0069. For FLLLSCLVRRSF, the protein stability index was 0.404 ± 0.014. FLRFVFSFTFFV gave a protein stability index of 0.265 ± 0.0046. Sequence FLVGVARCPFLV has a protein stability index of 0.244 ± 0.021. Sequence FLVLLFCLFFCF has a protein stability index of 0.524 ± 0.007. FMCGWRMLVSVS was tested, and the protein stability index was 0.0307 ± 0.0023. Sequence FPGLPVFFPPPL has a protein stability index of 0.709 ± 0.039. For FPRLERVAVMAR, the protein stability index was 0.145 ± 0.0069. FQILLRFFRSVA showed a protein stability index of 0.189 ± 0.003. FRAKRTVFQRNS showed a protein stability index of 0.2585 ± 0.0011. For FRFFRPSFRFFC, the protein stability index was 0.107 ± 0.014. With FRFPCSILMTLL the protein stability index was 0.196 ± 0.0043. With FRQEVLHWRQHS the protein stability index was 0.167 ± 0.048. In the case of FRWLAFALLFGC, the protein stability index is reported as 0.1758 ± 0.00032. FSARPFLYSFRP showed a protein stability index of 0.653 ± 0.037. FSCEFKMSCLKS gave a protein stability index of 0.474 ± 0.015. FSIFFIIEFVGT gave a protein stability index of 0.157 ± 0.011. Sequence FSSYLSALLIVV has a protein stability index of 0.155 ± 0.0065. With FSYVGFFFLLGF the protein stability index was 0.392 ± 0.049. Work on FTYCIVFFFSRL yielded a protein stability index of 0.379 ± 0.011. FTYFFFVRVLLV was tested, and the protein stability index was 0.11 ± 0.0067. Sequence FVCSSVFVVLLF has a protein stability index of 0.264 ± 0.017. FVFLCLLCISSF was tested, and the protein stability index was 0.193 ± 0.01. FVGCFVFYLFLL gave a protein stability index of 0.394 ± 0.011. Work on FVRVFMASIIWC yielded a protein stability index of 0.391 ± 0.012. In the case of FVVFAFGVLPVK, the protein stability index is reported as 0.361 ± 0.019. FVVRVVCRLGFF was tested, and the protein stability index was 0.182 ± 0.0026. Sequence FWFSFLLSGVCC has a protein stability index of 0.257 ± 0.012. FWFVSVFIVFFC was tested, and the protein stability index was 0.179 ± 0.018. With FYLPGLFFVRFR the protein stability index was 0.616 ± 0.037. Sequence FYVIFRRACLSV has a protein stability index of 0.1681 ± 0.00044. GACGLGMLIFIV gave a protein stability index of 0.256 ± 0.012. For GAPIFSSFLLFC, the protein stability index was 0.332 ± 0.028. GARCFGFFCFLV showed a protein stability index of 0.127 ± 0.0078. GCIFGNVVFVRV was tested, and the protein stability index was 0.433 ± 0.02. In the case of GCIMHLTIYVRD, the protein stability index is reported as 0.2235 ± 0.0014. Work on GCPRSWSFNIYV yielded a protein stability index of 0.182 ± 0.018. GCRSLRLWLTFS showed a protein stability index of 0.299 ± 0.0033. In the case of GCVVVLIPVVSA, the protein stability index is reported as 0.215 ± 0.0045. GEAYVYLFVYSC was tested, and the protein stability index was 0.16 ± 0.012. With GEWCLPLRLVVY the protein stability index was 0.137 ± 0.01. For GFCVRIFHGFLH, the protein stability index was 0.215 ± 0.0082. For GFDVFWLWVVVA, the protein stability index was 0.0812 ± 0.011. Sequence GFRMACYIRVLS has a protein stability index of 0.175 ± 0.01. GFSFVCFSPFLF gave a protein stability index of 0.3864 ± 0.0023.
